Results as given in PMC3888030 (Journal of immunology (Baltimore, Md. : 1950), 2013).
Where two headings read alike, the source gives them in different places.

Key:
[1] = tested on: IVS T cells from vaccinated melanoma patients; format: cell-based, human
HLA-DR4 = details: cited from earlier work
[2] = target: purified HLA-DR4 (HLA-DRB1*0401) (human); experiment: radioligand binding

Molecule | IC50 [2] | further results
PKYVKQNTLKLAT [HA307–319] |  | Background IFN-γ secretion by T cells stimulated with APC + control peptide ([1]; Patient #2, 1 μM peptide stimulation): 213 pg/mL; Background IFN-γ secretion by T cells stimulated with APC + control peptide ([1]; Patient #2, 10 μM peptide stimulation): 208 pg/mL; Background IFN-γ secretion by T cells stimulated with APC + control peptide ([1]; Patient #4, 1 μM peptide stimulation): 187 pg/mL; Background IFN-γ secretion by T cells stimulated with APC + control peptide ([1]; Patient #4, 10 μM peptide stimulation): 191 pg/mL; Background IFN-γ secretion by T cells stimulated with APC + control peptide ([1]; Patient #5, 1 μM peptide stimulation): 346 pg/mL; Background IFN-γ secretion by T cells stimulated with APC + control peptide ([1]; Patient #5, 10 μM peptide stimulation): 388 pg/mL; affinity for HLA-DR4 (HLA-DR4): high affinity
MBP111–129: self peptide from myelin basic protein (PSESDELQTIQEDSAATSE; UniProt P02686 111-129, looked up, fragment) |  | affinity for HLA-DR4 (HLA-DR4): binds weakly
WNRQLYPEATEAQRLD [gp100 44-59 APL W52A] | 372 nM | 
WNRQLYAEWTEAQRLD [gp100 44-59 APL P50A] | 189 nM | 
WNRQLYPAWTEAQRLD [gp100 44-59 APL E51A] | 199 nM | 
WNRQFYPEWTEAQRLD [gp100 44-59 APL L48F] | 280 nM | 
WNRQLYPEWTTAQRLD [gp100 44-59 APL E54T] | 104 nM | 
WNRQLYPEWTEGQRLD [gp100 44-59 APL A55G] | 553 nM | 
WNRQLYPEWTEAARLD [gp100 44-59 APL Q56A] | 276 nM | 
WNRQLYPEWVEAQRLD [gp100 44-59 APL T53V] | 489 nM | 
WNRQLYPEWTLAQRLD [gp100 44-59 APL E54L] | 65 nM | 
